Source: patent publication US20070053902 (published 2007)
Read-outs that look alike come from different tables or passages of the source.

T1: human integrin alphavbeta3 (human, UniProt P06756)
T1 chain 1: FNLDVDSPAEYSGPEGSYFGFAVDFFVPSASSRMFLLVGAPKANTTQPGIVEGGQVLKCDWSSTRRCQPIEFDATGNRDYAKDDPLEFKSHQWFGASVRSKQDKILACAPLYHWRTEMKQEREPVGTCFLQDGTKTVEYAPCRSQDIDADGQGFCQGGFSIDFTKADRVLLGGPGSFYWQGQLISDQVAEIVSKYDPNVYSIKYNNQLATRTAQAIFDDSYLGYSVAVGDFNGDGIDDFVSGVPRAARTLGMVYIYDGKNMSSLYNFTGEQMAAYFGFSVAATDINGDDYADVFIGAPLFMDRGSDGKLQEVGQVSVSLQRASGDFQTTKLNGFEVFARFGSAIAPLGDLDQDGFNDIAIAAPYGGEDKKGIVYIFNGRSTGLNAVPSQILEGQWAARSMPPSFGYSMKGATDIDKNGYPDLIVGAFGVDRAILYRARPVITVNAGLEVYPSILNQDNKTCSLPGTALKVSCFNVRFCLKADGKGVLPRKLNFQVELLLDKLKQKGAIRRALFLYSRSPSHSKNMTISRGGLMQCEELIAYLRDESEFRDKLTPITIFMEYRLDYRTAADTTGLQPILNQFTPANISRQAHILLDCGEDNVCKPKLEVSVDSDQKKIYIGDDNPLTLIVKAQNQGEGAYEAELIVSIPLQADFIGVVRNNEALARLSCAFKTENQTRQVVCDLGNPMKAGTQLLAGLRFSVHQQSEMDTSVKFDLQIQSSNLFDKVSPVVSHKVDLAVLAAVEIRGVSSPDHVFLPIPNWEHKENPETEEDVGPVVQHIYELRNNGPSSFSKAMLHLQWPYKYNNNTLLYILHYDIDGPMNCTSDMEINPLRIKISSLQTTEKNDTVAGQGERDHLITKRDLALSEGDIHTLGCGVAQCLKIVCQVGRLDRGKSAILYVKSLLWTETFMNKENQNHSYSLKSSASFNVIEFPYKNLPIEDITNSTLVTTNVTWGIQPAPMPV
T1 chain 2: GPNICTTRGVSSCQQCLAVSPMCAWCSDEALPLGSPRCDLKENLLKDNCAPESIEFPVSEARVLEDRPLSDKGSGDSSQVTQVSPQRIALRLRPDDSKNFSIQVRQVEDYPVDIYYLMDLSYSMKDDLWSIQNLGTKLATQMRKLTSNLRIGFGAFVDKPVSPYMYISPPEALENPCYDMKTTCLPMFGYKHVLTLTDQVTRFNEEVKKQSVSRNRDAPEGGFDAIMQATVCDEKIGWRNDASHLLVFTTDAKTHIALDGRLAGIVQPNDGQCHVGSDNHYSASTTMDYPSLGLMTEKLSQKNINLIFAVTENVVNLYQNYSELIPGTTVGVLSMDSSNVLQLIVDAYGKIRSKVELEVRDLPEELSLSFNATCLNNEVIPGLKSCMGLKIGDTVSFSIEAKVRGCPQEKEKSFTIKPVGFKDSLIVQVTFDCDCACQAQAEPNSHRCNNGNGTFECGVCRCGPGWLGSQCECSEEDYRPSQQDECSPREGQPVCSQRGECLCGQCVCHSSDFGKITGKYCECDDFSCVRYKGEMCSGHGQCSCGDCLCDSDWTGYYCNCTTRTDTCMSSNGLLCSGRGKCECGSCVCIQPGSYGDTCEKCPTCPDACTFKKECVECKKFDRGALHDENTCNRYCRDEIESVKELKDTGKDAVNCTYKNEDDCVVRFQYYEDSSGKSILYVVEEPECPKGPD


What was measured:
[1] = biological target: T1, human integrin alphavbeta3; assay: SPR
[2] = biological target: T1, human integrin alphavbeta3; assay: SPR

Kd [1] [nM] | Kd [2] [nM] | Binder
1.3 | 0.53 | murine D12 (antibody, V domains shown) VH: EIQLQQSGPEVVKPGASVKVSCKASGYAFTSYNMYWVKQSHGKSLEWIGYIDPYNGDTFYNQKFKGKATLTVDKSSSTAYMHLNSLTSEDSAVFYCARQNYGSFAYWGQGTLVTVSA VL: DIVLTQSPATLSVTPGDSVSLSCRASQSISNHLHWYQQRSHESPRLLIKYASQSISGIPSRFRGSGSGTDFTLNINILETEDFGMYFCQQSNSWPFTFGSGTNLEIKR
1.1 |  | HZD12-IgG4 (antibody, V domains shown) VH: QVQLVQSGAEVKKPGASVKVSCKASGYAFTSYNMYWVRQAPGQGLEWIGYIDPYNGDTFYNQKFKGKATLTVDKSTSTAYMELSSLRSEDTAVYYCARQNYGSFAYWGQGTLVTVSS VL: DIVLTQSPGTLSLSPGERATLSCRASQSISNHLHWYQQKPGQAPRLLIKYASQSISGIPSRFSGSGSGTDFTLTISRLEPEDFAVYYCQQSNSWPFTFGQGTKVEIK
1 |  | HZD12-IgG1 (antibody, V domains shown) VH: QVQLVQSGAEVKKPGASVKVSCKASGYAFTSYNMYWVRQAPGQGLEWIGYIDPYNGDTFYNQKFKGKATLTVDKSTSTAYMELSSLRSEDTAVYYCARQNYGSFAYWGQGTLVTVSS VL: DIVLTQSPGTLSLSPGERATLSCRASQSISNHLHWYQQKPGQAPRLLIKYASQSISGIPSRFSGSGSGTDFTLTISRLEPEDFAVYYCQQSNSWPFTFGQGTKVEIK
